In the RNAGym collection of RNA variant scans (doi:10.1093/molbev/msab373):

B1: Azoarcus group I ribozyme (parent)
chain: GUGCCUUGCGCCGGGAAACCACGCAAGGGAUGGUGUCAAAUUCGGCGAAACCUAAGCGCCCGCCCGGGCGUAUGGCAACGCCGAGCCAAGCUUCGGCGCCUGCGCCGAUGAAGGUGUAGAGACUAGACGGCACCCACCUAAGGCAAACGCUAUGGUGAAGGCAUAGUCCAGGGAGUGGCGAAAGUCACACAAACCGG

Variants of: B1
Assay: reverse-splicing fitness (ratio to wild type); higher = more active; in vitro selection; Mg2+ level not given
In short: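 An in vitro group I ribozyme library with randomized positions was T7-transcribed and gel-purified. In triplicate, 10 pmol RNA in EPPS pH 7.5 was reacted with 50 pmoles of a 30-nt RNA substrate for 1 h at 37 °C across several added MgCl2 levels (1–48 mM), then stopped with EDTA. Products were reverse transcribed from a substrate-complementary primer, PCR-amplified and sequenced (HiSeq 4000). Fitness is a variant's read proportion after selection over that before, normalised to wild type.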

Going from C82U A111U A120C A145C C150G C169G U176A to C82U A111U A120C A145C C150G C169G U176G, the reverse-splicing fitness falls from 0.00839 to 0.0044.

Compared with C82U A111U A120C A145C C150G C169G U176C, C82U A111U A120C A145G C150A U176A is higher in reverse-splicing fitness: 0.00632 for the first, 0.0105 for the second.

First: C82U A111U A120C A145G C150A U176G
Second: C82U A111U A120C A145G C150A U176C
The reverse-splicing fitness of the first is lower: 0.00675 for the first, 0.0207 for the second.

First: C82U A111U A120C A145G C150A C169G
Second: C82U A111U A120C A145G C150A C169U
The reverse-splicing fitness of the first is lower: 0.00791 for the first, 0.0104 for the second.

Compared with C82U A111U A120C A145G C150A C169A, C82U A111U A120C A145G C150G C169U U176A is higher in reverse-splicing fitness: 0.0103 for the first, 0.0113 for the second.

Going from C82U A111U A120C A145G C150G C169U U176G to C82U A111U A120C A145G C150G C169U U176C, the reverse-splicing fitness rises from 0.00719 to 0.0128.

Compared with C82U A111U A120C A145C U176G, C82U A111U A120C A145C U176A is higher in reverse-splicing fitness: 0.00539 for the first, 0.0125 for the second.

First: C82U A111U A120C A145C U176C
Second: C82U A111U A120C A145U C150G U176G
The reverse-splicing fitness of the first is higher: 0.0132 for the first, 0.00331 for the second.

Compared with C82U A111U A120C A145U C150G U176A, C82U A111U A120C A145U C150G U176C is higher in reverse-splicing fitness: 0.00587 for the first, 0.00709 for the second.

First: C82U A111U A120C A145G C150G C169G U176C
Second: C82U A111U A120C A145G C150G C169G U176A
The reverse-splicing fitness of the first is higher: 0.0112 for the first, 0.00984 for the second.

Going from C82U A111U A120C A145G C150G C169G U176G to C82U A111U A120C A145G C150U C169A U176G, the reverse-splicing fitness rises from 0.00574 to 0.00576.

Going from C82U A111U A120C A145G C150U C169A U176A to C82U A111U A120C A145G C150U C169A U176C, the reverse-splicing fitness falls from 0.017 to 0.0136.

Going from C82U A111U A120C A145C C150U C169U U176G to C82U A111U A120C A145C C150U C169U U176A, the reverse-splicing fitness rises from 0.00464 to 0.015.

Compared with C82U A111U A120C A145C C150U C169U U176C, C82U A111U A120C A145C C150G is lower in reverse-splicing fitness: 0.0108 for the first, 0.00726 for the second.

Compared with C82U A111U A120C A145C C150U, C82U A111U A120C A145G C150G U176G is lower in reverse-splicing fitness: 0.0119 for the first, 0.00575 for the second.

Going from C82U A111U A120C A145G C150G U176A to C82U A111U A120C A145G C150G U176C, the reverse-splicing fitness rises from 0.00644 to 0.0109.

First: C82U A111U A120C A145U C169A U176A
Second: C82U A111U A120C A145U C169A U176C
The reverse-splicing fitness of the first is higher: 0.00849 for the first, 0.00749 for the second.

Compared with C82U A111U A120C A145U C150G C169U, C82U A111U A120C A145U C150G C169A is higher in reverse-splicing fitness: 0.00819 for the first, 0.00868 for the second.

Going from C82U A111U A120C A145U C150G C169G to C82U A111U A120C A145C C150U C169A, the reverse-splicing fitness rises from 0.00651 to 0.00709.

Compared with C82U A111U A120C A145C C150U C169G, C82U A111U A120C A145C C150U C169U is higher in reverse-splicing fitness: 0.00639 for the first, 0.00899 for the second.

First: C82U A111U A120C A145G C150A C169G U176C
Second: C82U A111U A120C A145G C150A C169G U176G
The reverse-splicing fitness of the first is higher: 0.0229 for the first, 0.00516 for the second.

First: C82U A111U A120C A145G C150A C169G U176A
Second: C82U A111U A120C A145G C169G
The reverse-splicing fitness of the first is higher: 0.0169 for the first, 0.00779 for the second.

Going from C82U A111U A120C A145G C169U to C82U A111U A120C A145G C169A, the reverse-splicing fitness falls from 0.0112 to 0.0083.

Compared with C82U A111U A120C A145U C150U C169A U176A, C82U A111U A120C A145U C150U C169A U176C is lower in reverse-splicing fitness: 0.0119 for the first, 0.00781 for the second.

Compared with C82U A111U A120C A145U C150U C169A U176G, C82U A111U A120C A145U C150U C169G U176G is higher in reverse-splicing fitness: 0.00505 for the first, 0.00554 for the second.

First: C82U A111U A120C A145U C150U C169G U176C
Second: C82U A111U A120C A145U C150U C169G U176A
The reverse-splicing fitness of the first is higher: 0.0115 for the first, 0.011 for the second.

First: C82U A111U A120C A145C C150G C169U U176C
Second: C82U A111U A120C A145C C150G C169U U176G
The reverse-splicing fitness of the first is higher: 0.0116 for the first, 0.00477 for the second.

Compared with C82U A111U A120C A145C C150G C169U U176A, C82U A111U A120C A145G is higher in reverse-splicing fitness: 0.0108 for the first, 0.03 for the second.

Going from C82U A111U A120C A145U to C82U A111U A120C A145U C150A C169A U176C, the reverse-splicing fitness falls from 0.0286 to 0.0094.

First: C82U A111U A120C A145U C150A C169A U176A
Second: C82U A111U A120C A145U C150A C169A U176G
The reverse-splicing fitness of the first is higher: 0.0106 for the first, 0.00478 for the second.

Going from C82U A111U A120C A145G C150G to C82U A111U A120C A145G C150U, the reverse-splicing fitness rises from 0.00928 to 0.0229.

Going from C82U A111U A120C A145G C150A to C82U A111U A120C A145G C169U U176A, the reverse-splicing fitness rises from 0.0116 to 0.0163.

First: C82U A111U A120C A145G C169U U176G
Second: C82U A111U A120C A145G C169U U176C
The reverse-splicing fitness of the first is lower: 0.00475 for the first, 0.0162 for the second.

First: C82U A111U A120C A145U C169A
Second: C82U A111U A120C A145C C169G U176G
The reverse-splicing fitness of the first is higher: 0.00631 for the first, 0.00439 for the second.

Going from C82U A111U A120C A145C C169G U176A to C82U A111U A120C A145C C169G U176C, the reverse-splicing fitness falls from 0.0202 to 0.0105.

Compared with C82U A111U A120C A145C C150U C169A U176G, C82U A111U A120C A145C C150U C169A U176A is higher in reverse-splicing fitness: 0.00569 for the first, 0.0088 for the second.

First: C82U A111U A120C A145C C150U C169A U176C
Second: C82U A111U A120C A145U C150U U176C
The reverse-splicing fitness of the first is lower: 0.00517 for the first, 0.0147 for the second.

Going from C82U A111U A120C A145U C150U U176G to C82U A111U A120C A145U C150U U176A, the reverse-splicing fitness rises from 0.0051 to 0.0114.

First: C82U A111U A120C A145C C150A C169U U176G
Second: C82U A111U A120C A145G C150G C169G
The reverse-splicing fitness of the first is lower: 0.00541 for the first, 0.00731 for the second.

Compared with C82U A111U A120C A145G C150G C169U, C82U A111U A120C A145G C150G C169A is higher in reverse-splicing fitness: 0.00911 for the first, 0.00919 for the second.

Going from C82U A111U A120C A145G C150A C169A U176C to C82U A111U A120C A145G C150A C169A U176A, the reverse-splicing fitness rises from 0.0189 to 0.0207.

C82U A111U A120C A145G C150A C169A U176G gave a reverse-splicing fitness of 0.0059.
